Our source for the Kd values is publication PMC3682517, “Engineering A-kinase Anchoring Protein (AKAP)-selective Regulatory Subunits of Protein Kinase A (PKA) through Structure-based Phage Selection*^([image sbox.jpg])” (The Journal of Biological Chemistry, 2013).

Assay [1] deals with T1, wild-type RII(1–45) D/D domain fragment (UniProt P13861 1-45, biotinylated when used as AlphaScreen tracer (site not stated)).
T1 construct: PKA regulatory subunit RIIα, residues 1-45, docking and dimerization (D/D) domain; His6 tag is PreScission-cleavable; also called WT RII; RII D/D domain; not shown: V5, C-terminal, kept
In words: AlphaScreen or HTRF; competition binding: biotinylated R subunit D/D domain 0.3 nM (tracer), GST-AKAP RII-binding region 3 nM (target), increasing untagged R subunit D/D domain; IC50 approximates Kd; 20 mM HEPES pH 7.2, 100 mM NaCl, 0.1% BSA; 1 h at 4 °C; one-site competition fit. The settings on record: both partners purified. In general terms: Alpha assays give light when donor and acceptor beads are brought close together.

Assay [2] has as its target T2, R_(Select)AKAP18(1–45) D/D domain fragment (UniProt P13861 2-46, Val-3 in R_(Select)AKAP18 | Leu-5 in R_(Select)AKAP18 | Asp-10 in each …, biotinylated when used as AlphaScreen tracer (site not stated)).
T2 construct: PKA regulatory subunit RIIα, residues 1-45 (D/D domain), variant selected by phage display against AKAP18; changes at positions 3, 5, 10 and 14; not shown: V5, C-terminal, kept
The assay is described as above. To be noted: both partners purified.

B1: GST-AKAP2 anchoring helix fragment (domain or fragment)
chain: GDSPLVDDPLEYQAGLLVQNAIQQAIAEQVDKAVSKTSRDGAEQQGPEATVEEAEAAAFG
Broadly, the Kd is the equilibrium constant for the complex coming apart. The low end stands for tighter binding, the high end for weaker binding. Take B1: the equilibrium dissociation constant (Kd) in assay [1] stood at 12.5 ± 1.8 nM.

B2: GST-AKAP18 anchoring helix fragment (domain or fragment)
chain: NGGEPDDAELVRLSKRLVENAVLKAVQQYLEETQNKNKPGEGSSVKTEAADQNGNDNENNRK
In the case of B2, the Kd is 162 nM in assay [2] and 16.3 nM in assay [1].
